{"source": "paper PMC5667739", "target": "GII.10 P domain (Vietnam026) (norovirus GII.10 (Vietnam026))", "assay": "crystal structure", "data": [{"substance": "GII.10 P domain (Vietnam026) (domain or fragment)", "values": [{"measurement": "stoichiometry N", "result": 2}]}]}
